Key:
Assay in all cases: GST pull-down from GDP+AlF4- treated human platelet lysate, western blot
[1] = biological target: T1, Gαq (endogenous, human platelet lysate) (human, UniProt P50148 1-359)
T1 construct: mature; also called Gαq/11; alpha subunit detected by antibodies directed against Gαq/11
T1 sequence (looked up): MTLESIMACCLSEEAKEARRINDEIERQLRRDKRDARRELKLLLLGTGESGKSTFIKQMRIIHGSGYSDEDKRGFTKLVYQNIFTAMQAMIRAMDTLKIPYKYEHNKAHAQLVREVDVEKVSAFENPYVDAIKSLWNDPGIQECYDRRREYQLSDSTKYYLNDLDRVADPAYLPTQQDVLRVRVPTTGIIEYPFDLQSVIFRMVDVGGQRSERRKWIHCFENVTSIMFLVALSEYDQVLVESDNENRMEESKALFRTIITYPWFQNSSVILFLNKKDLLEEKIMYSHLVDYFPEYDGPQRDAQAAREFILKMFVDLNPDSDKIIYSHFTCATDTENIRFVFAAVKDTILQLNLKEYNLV
Procedure: (§1) Bound antibody was detected using goat […] (BioRad, Hercules, Calif.) and Supersignal West Pico ECL reagent (Pierce, Rockford, Ill.).
(§2) In order to determine the target alpha subunits of RGS18, binding experiments were performed using GST-RGS18 as prepared in Example 4 and lysates of human platelets. A similar method has been used to determine the binding specificity of hRGS16 using lysates from Jurkat cells (164). […] For these experiments, platelets were lysed in a Triton X-100 containing buffer and resuspended to 1 mg/ml. The lysate was then treated with GDP, which holds the alpha subunit in the GDP-bound “in-activated” state, or GDP+AlF₄⁻ that mimics the transition state of the Gα subunit. Recombinant GST-RGS18 bound to Sepharose-4 beads was added to the treated lysates, incubated and washed several times. Bound protein was eluted in Laemmli buffer and subjected to SDS-PAGE followed by western blot analysis. A panel of G protein alpha subunit specific antibodies was used to determine which alpha subunits bind to RGS18. […] In contrast, in lysates that have been treated with GDP+AlF₄⁻, RGS18 binds a significant amount of alpha subunit detected by antibodies directed against G_{αi1/2}, G_{α0/i3} and G_{αq/11}. […] Neither GST nor Sepharose 4B alone binds to any of these alpha subunits in either GDP or GDP+AlF₄⁻ treated platelet lysates (data not shown). The binding selectivity of RGS18 is consistent with that found for other RGS proteins which selectively bind to members of the Gαi family and/or Gαq family (14).

[2] = biological target: T2, Gαz (endogenous, human platelet lysate) (human, UniProt P19086 2-355)
T2 construct: mature; also called printed once as Gα2
T2 sequence (P19086 2-355): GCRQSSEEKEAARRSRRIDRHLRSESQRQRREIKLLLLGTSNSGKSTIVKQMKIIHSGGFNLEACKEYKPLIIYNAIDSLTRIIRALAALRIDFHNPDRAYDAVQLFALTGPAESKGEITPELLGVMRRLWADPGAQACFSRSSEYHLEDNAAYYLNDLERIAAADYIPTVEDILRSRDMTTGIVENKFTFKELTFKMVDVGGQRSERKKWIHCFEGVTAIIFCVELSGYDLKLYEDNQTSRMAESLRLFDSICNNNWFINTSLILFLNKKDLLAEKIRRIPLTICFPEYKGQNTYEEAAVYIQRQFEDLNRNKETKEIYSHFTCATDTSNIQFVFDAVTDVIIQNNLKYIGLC
Procedure: as §1, §2

[3] = biological target: T3, Gα12 (endogenous, human platelet lysate) (human, UniProt Q03113 1-381)
T3 construct: mature
T3 sequence (looked up): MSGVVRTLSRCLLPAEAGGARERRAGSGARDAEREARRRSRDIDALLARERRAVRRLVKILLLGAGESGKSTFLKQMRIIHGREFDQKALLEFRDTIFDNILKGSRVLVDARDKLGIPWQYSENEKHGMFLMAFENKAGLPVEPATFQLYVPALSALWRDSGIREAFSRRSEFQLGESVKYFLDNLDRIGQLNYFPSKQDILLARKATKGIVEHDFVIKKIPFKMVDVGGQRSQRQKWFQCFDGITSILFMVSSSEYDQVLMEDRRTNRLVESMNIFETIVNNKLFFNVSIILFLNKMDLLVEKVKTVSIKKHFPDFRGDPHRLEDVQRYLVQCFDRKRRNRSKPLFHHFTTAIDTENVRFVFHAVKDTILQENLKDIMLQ
Procedure: as §1, §2

[4] = biological target: T4, Gαs (endogenous, human platelet lysate) (human, UniProt P63092 2-394)
T4 construct: mature
T4 sequence (P63092 2-394): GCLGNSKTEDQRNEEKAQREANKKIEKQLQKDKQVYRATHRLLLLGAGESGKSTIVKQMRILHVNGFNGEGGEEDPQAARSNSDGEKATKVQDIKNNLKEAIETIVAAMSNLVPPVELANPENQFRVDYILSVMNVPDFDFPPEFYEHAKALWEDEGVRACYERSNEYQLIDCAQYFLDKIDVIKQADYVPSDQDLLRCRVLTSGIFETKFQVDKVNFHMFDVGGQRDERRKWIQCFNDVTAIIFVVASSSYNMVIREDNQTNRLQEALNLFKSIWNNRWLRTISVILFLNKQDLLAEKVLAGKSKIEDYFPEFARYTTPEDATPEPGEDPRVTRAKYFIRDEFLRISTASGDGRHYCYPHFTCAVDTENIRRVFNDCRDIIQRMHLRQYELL
Procedure: as §1, §2

binding result [1]: binds | binding result [2]: no binding | binding result [3]: no binding | binding result [4]: no binding
B1: GST-RGS18 fusion protein coupled to glutathione-Sepharose 4B (other)
chain: METTLLFFSQINMCESKEKTFFKLIHGSGKEETSKEAKIRAKEKRNRLSLLVQKPEFHEDTRSSRSGHLAKETRVSPEEAVKWGESFDKLLSHRDGLEAFTRFLKTEFSEENIEFWIACEDFKKSKGPQQIHLKAKAIYEKFIQTDAPKEVNLDFHTKEVITNSITQPTLHSFDAAQSRVYQLMEQDSYTRFLKSDIYLDLMEGRPQRPTNLRRRSRSFTCNEFQDVQSDVAIWL
notes: The sense primer carries a few nucleotides upstream of the ATG, so a short extra linker between GST and Met1 is likely; also called recombinant GST-RGS18; GST-tagged fusion protein of RGS18; not shown: glutathione S-transferase (GST) tag encoded by plasmid pGEX-5X-1, N-terminal to RGS18 (in-frame Bam HI fusion); the fili
